What all share (assay): SPR; reducing conditions: 2 mM TCEP in the SPR running buffer, immobilised PBP1B versions incubated in it for 30 min before the assay; LpoB injected from 19.5 nM to 10 μM; apparent KD
Settings in all cases: both partners purified
Background: In SPR one partner is held on a chip, and binding of the other changes the refractive index at the surface.

One assay deals with T1, PBP1B^Δ158–160 (E. coli, UniProt P02919 46-844, Δ158–160).
T1 construct: PBP1B, E. coli, residues 46-844 with residues 158-160 of Loop 1 removed, made by mutagenesis of pDML924; also called Loop 1 truncation; source: E. coli BL21(DE3), purified (membrane extract, HisTrap, thrombin, HiTrap SP ion exchange)
T1 sequence (looked up): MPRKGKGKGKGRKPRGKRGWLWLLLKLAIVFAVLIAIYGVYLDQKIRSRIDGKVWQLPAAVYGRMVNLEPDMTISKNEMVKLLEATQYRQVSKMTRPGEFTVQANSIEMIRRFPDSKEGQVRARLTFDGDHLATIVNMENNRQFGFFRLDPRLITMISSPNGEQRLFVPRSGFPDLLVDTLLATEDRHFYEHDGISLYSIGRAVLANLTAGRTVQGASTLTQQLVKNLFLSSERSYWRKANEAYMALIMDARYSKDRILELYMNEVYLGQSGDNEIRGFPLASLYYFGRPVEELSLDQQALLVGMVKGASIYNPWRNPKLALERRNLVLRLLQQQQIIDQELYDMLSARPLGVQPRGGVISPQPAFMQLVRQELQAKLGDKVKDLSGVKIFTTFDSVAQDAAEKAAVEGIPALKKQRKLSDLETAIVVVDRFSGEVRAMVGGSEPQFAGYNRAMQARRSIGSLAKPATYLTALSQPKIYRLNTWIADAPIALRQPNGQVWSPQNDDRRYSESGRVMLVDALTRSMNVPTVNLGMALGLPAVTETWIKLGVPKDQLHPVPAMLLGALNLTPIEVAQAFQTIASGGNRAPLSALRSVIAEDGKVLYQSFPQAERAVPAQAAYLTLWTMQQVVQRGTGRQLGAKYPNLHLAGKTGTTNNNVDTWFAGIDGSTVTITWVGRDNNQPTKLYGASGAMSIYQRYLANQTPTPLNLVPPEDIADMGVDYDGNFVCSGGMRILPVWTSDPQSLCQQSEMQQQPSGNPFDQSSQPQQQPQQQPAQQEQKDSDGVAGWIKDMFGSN

In a further assay the target is T2, PBP1B P162C/I644C (E. coli, UniProt P02919 46-844, P162C | I644C).
T2 construct: PBP1B, E. coli, residues 46-844, made by mutagenesis of pDML924; Disulphide bridge between C162 and C644 (no free thiol groups detected); reduced in the SPR assay with 2 mM TCEP; source: E. coli BL21(DE3), purified (membrane extract, HisTrap, thrombin, HiTrap SP ion exchange)
T2 sequence (looked up): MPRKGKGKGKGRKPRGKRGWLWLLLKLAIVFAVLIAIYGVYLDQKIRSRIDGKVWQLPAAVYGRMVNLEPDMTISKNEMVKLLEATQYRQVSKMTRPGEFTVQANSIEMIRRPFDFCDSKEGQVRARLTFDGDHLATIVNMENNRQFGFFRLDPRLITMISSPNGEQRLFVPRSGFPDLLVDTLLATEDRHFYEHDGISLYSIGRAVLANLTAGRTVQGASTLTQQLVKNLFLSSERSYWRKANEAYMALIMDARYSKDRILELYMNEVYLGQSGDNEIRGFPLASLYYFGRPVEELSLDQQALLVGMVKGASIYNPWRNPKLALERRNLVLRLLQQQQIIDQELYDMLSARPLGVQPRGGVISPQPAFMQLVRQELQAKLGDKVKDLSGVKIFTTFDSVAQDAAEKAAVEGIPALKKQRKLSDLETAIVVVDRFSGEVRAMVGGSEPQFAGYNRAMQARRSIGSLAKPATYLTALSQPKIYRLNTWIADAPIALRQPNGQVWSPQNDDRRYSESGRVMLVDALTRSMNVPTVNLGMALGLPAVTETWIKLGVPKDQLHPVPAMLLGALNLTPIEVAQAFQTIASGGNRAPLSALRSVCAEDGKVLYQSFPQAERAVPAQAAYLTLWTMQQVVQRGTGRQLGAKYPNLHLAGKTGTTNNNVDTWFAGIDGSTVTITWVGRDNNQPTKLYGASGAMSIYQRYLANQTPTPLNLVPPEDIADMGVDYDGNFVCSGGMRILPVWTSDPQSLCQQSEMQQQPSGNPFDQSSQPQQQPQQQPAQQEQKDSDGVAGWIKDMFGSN

For another assay, the target named is T3, PBP1B D160C/K437C (E. coli, UniProt P02919 46-844, D160C | K437C).
T3 construct: PBP1B, E. coli, residues 46-844, made by mutagenesis of pDML924; Disulphide bridge between C160 and C437 (no free thiol groups detected); reduced in the SPR assay with 2 mM TCEP; source: E. coli BL21(DE3), purified (membrane extract, HisTrap, thrombin, HiTrap SP ion exchange)
T3 sequence (looked up): T2 sequence (looked up) with D115C, C117P, K392C, C599I

Substitutions are numbered along the chain they refer to.

B1: LpoB (natural protein, E. coli)
chain: VGQREPAPVEEVKPAPEQPAEPQQPVPTVPSVPTIPQQPGPIEHEDQTAPPAPHIRHYDWNGAMQPMVSKMLGADGVTAGSVLLVDSVNNRTNGSLNAAEATETLRNALANNGKFTLVSAQQLSMAKQQLGLSPQDSLGTRSKAIGIARNVGAHYVLYSSASGNVNAPTLQMQLMLVQTGEIIWSGKGAVSQQ
notes: LpoB, E. coli; also called lipoprotein LpoB; source: E. coli BL21(DE3), purified (HisTrap, Superdex 200), as in Egan et al. 2014
For the molecule B1, the Kd with PBP1B^Δ158–160 was 1700 nM; with PBP1B P162C/I644C, 182 nM; with PBP1B D160C/K437C, 2040 nM.

The values are drawn from article PMC6220978, “Induced conformational changes activate the peptidoglycan synthase PBP1B” (Molecular Microbiology, 2018).
